The values below come from publication doi:10.1101/544239 (bioRxiv, 2019).

Data set [1] deals with the molecule itself. The data set can be described thus: AUC.
The target of data set [2] is T1, CheW-CheA complex of Helicobacter pylori (Helicobacter pylori (G27 strain) | …, UniProt B5Z859 1-807; O25152 1-165).
T1 sequence (looked up) 1: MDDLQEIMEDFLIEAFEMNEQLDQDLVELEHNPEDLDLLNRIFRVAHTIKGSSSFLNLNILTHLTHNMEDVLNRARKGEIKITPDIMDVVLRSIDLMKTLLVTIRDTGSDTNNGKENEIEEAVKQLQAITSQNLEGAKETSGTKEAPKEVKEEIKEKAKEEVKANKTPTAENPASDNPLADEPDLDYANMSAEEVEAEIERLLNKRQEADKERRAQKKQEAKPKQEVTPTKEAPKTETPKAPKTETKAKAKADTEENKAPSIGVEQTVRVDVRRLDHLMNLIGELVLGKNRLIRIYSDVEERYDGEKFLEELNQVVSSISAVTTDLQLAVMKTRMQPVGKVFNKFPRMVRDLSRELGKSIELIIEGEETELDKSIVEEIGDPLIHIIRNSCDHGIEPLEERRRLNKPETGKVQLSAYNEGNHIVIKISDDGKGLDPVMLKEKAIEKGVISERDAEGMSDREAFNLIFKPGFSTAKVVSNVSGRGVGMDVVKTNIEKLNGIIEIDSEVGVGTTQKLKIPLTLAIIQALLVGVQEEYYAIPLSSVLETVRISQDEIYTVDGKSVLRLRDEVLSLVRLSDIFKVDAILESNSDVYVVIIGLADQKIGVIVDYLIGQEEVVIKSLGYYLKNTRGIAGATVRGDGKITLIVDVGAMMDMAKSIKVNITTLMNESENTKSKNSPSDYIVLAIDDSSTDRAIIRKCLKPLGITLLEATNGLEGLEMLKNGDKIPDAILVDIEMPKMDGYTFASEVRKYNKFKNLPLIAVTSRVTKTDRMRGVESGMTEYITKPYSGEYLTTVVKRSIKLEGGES
T1 sequence (looked up) 2: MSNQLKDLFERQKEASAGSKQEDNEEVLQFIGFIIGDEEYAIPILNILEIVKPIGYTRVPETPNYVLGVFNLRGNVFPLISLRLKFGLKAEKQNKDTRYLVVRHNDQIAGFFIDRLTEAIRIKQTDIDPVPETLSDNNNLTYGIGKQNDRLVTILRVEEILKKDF
Put plainly: kinase activity titration.

The target of data set [3] is T2, Helicobacter pylori histidine kinase CheA, strain G27 (Helicobacter pylori (G27 strain), UniProt B5Z859 1-807).
T2 sequence (looked up): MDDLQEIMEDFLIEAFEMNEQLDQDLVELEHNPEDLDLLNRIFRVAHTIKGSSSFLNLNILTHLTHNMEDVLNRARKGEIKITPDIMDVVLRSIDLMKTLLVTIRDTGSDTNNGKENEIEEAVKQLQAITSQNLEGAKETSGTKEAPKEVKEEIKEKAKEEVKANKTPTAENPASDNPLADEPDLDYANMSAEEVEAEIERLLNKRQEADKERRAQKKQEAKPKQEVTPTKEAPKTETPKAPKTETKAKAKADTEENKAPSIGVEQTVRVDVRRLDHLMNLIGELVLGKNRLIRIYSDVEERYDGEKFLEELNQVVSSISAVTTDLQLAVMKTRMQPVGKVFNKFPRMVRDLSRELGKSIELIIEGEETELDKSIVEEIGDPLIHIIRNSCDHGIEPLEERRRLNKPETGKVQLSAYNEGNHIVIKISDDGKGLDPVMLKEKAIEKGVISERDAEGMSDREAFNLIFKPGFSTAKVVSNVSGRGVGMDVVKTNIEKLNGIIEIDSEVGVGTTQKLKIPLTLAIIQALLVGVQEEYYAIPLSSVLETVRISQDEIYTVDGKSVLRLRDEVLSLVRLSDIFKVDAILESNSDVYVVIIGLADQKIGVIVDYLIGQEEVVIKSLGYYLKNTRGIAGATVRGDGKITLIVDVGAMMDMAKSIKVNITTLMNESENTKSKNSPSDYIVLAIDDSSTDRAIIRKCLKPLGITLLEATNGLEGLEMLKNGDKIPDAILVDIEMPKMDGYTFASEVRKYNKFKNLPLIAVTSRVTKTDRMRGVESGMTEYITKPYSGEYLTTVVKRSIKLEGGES
Put plainly: kinase activity titration.

B1: Helicobacter pylori transducer-like protein D (TlpD), strain SS1 (receptor)
chain: not shown
As for B1, in data set [1], the affinity, expressed as Kd, was 0.15 µM and the stoichiometry N (in general, the number of molecules, sites or subunits per partner or assembly) was determined as 2. In addition, the dissociation constant Kd (usually the equilibrium constant for the complex coming apart) in data set [2] stood at 15.2 µM.

B2: Helicobacter pylori scaffold protein CheW, strain SS1 (natural protein, Helicobacter pylori (SS1 strain), UniProt O25152 1-165, looked up)
chain: MSNQLKDLFERQKEASAGSKQEDNEEVLQFIGFIIGDEEYAIPILNILEIVKPIGYTRVPETPNYVLGVFNLRGNVFPLISLRLKFGLKAEKQNKDTRYLVVRHNDQIAGFFIDRLTEAIRIKQTDIDPVPETLSDNNNLTYGIGKQNDRLVTILRVEEILKKDF
Consider B2, for which the affinity in data set [3], expressed as Kd, was 14.6 µM.
